From US20260242735A1

Target: human CD33 E121A (human) (UniProt P20138)
Test: alanine scan, flow cytometry, HEK293-T

Chain of human CD33 E121A (human) (P20138 18-364 E121A limits assumed): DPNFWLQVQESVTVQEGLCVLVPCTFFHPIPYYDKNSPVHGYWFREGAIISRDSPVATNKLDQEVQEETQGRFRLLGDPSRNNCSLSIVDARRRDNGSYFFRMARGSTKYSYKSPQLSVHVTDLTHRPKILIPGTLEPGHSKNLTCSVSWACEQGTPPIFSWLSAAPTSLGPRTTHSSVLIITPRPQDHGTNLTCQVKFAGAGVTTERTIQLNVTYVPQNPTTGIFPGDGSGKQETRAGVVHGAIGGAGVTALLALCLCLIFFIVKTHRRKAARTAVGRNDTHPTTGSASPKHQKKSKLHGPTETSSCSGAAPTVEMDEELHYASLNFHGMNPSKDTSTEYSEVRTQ

Refmab #7 (WM53) (antibody)
Mean % WT Binding: 94.4 % WT binding
